Test results taken from PMC7810988 (2019).

Biological target: T1, OsSPX4^1–321 (rice, UniProt Q10B79 1-320)
T1 chain: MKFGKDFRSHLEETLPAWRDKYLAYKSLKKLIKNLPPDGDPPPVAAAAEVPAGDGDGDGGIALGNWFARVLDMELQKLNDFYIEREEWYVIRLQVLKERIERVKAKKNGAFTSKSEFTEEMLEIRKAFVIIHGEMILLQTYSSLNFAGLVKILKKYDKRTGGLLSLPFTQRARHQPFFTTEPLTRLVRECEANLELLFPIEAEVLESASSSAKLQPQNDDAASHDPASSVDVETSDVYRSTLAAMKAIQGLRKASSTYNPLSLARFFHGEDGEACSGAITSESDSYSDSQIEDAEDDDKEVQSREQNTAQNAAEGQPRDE
Test: ITC; 5PP-InsP5 (InsP7) 100 uM

Kd: 3.05 µM
B1: full-length OsPHR2 (OsPHR2^1-426, wild type) (natural protein)
chain: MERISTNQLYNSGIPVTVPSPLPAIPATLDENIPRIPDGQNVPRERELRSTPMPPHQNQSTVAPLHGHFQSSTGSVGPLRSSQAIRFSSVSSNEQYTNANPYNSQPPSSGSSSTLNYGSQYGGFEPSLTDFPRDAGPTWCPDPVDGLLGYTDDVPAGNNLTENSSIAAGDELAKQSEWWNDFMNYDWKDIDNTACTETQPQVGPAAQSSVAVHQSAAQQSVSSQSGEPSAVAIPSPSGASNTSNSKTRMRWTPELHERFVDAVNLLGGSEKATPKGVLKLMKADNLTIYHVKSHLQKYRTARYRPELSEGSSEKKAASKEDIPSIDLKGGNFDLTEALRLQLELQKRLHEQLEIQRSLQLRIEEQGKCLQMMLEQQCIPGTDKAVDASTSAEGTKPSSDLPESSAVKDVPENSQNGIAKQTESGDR
